Data taken from patent publication US9932382B2, “Kv2.1 channel-derived peptides and methods of use” (University of Pittsburgh—Of the Commonwealth System of …, priority 2014, dated 2018).

B1: C1a411-472: proximal segment of C1a, residues 411-472 of rat Kv2.1 (protein, UniProt P15387 411-472, looked up, fragment)
chain: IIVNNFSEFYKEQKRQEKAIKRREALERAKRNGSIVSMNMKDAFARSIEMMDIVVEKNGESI

What was measured:
Kv2.1/syntaxin binding = biological target: T1, Kv2.1/syntaxin binding (Homo sapiens, UniProt Q16623); experiment: Co-immunoprecipitation of Kv2.1 with syntaxin from transfected CHO cells; format: cell-based; details: for effect on Kv2.1/syntaxin binding (co-immunoprecipitation): syntaxin-expressing CHO cells co-transfected with Kv2.1 and peptide plasmid, syntaxin immunoprecipitates probed for Kv2.1
T1 construct: expressed in transfected cells; host or cells: CHO cells
Experimental: For electrophysiological experiments, mixed cortical neuronal/glial cultures were prepared from embryonic day 16 (E16) Sprague-Dawley rats (Charles River Laboratories, Wilmington, Mass., USA). Donor rats were euthanized by gradual CO2 exposure. Cortices were dissociated with trypsin, and the resultant cell suspension, adjusted to 670,000 cells per well, was plated on glass coverslips in 6-well plates as described previously (Hartnett et al., J Neurochem 68, 1836-1845, 1997). Non-neuronal cell proliferation was inhibited after two weeks in culture with 1-2 μM cytosine arabinoside, and cultures utilized at three to four weeks in vitro. For neuronal transfection, cells were treated for five hours in serum-free medium with 2 μL LIPOFECTAMINE™ 2000 (Invitrogen, Carlsbad, Calif.), 50 μL Optimem (GIBCO, Grand Island, N.Y.), and 1.5 μg DNA per well. For CHO cell transfections, cells were plated on coverslips in 24-well plates at a density of 5.6×10^4 cells per well for electrophysiological measurements or in 100 mm dishes at a density of 1.7×10^6 cells per dish for biochemical studies. Cells were treated for 3-4 hours in serum-free medium with a total of 1.2 μL LIPOFECTAMINE™ and 0.28 μg DNA per well for electrophysiology, or 55.1 μL LIPOFECTAMINE™ and 7.33 μg DNA per dish for biochemistry. Following transfection, cells were maintained in F12 medium containing fetal bovine serum at 37° C., 5% CO2 for 24 hours prior to experimentation.
Protein was harvested by washing cell culture dishes with ice cold PBS followed by a short incubation with 1% 3-[(3-cholamidopropyl) dimethylammonio]-1-propanesulfonate buffer. Protein A/G agarose bead slurry (Santa Cruz, Dallas, Tex.) was added to the samples and rocked at 4° C. for 1 hour in order to pre-clear non-specific protein binding. Samples were then incubated overnight at 4° C. with the appropriate immunoprecipitating antibodies. Following another incubation with the bead slurry, the protein samples were prepared/denatured by the addition of sample preparation buffer (625 mM Tris, 25% glycerol, 2% sodium dodecyl sulfate (SDS), 0.01% bromophenol blue and 5% β-mercaptoethanol) and heated at 95° C. for 5 min prior to SDS polyacrylamide gel electrophoresis and immunoblotting.
Protein samples from equal amounts of cell lysate were separated on 10% sodium dodecyl sulfate SDS polyacrylamide gels by electrophoresis using the Mini Protean 3 System (Bio-Rad, Hercules, Calif.). Separated protein bands were transferred onto 0.2 μm nitrocellulose membranes (Bio-Rad), blocked with 1% bovine serum albumin (BSA) in PBS with 0.05% Tween 20 (PBST) at room temperature for 1 hour, and probed with appropriate primary antibodies diluted in PBST. Blots were then incubated with infrared fluorescent goat secondary antibodies at room temperature for 1 hour, visualized using the Odyssey Imaging System (LI-COR Biosciences, Lincoln, Nebr.), and quantified using infrared fluorimetry.
After establishing that C1a effectively precluded the oxidant-induced K^+ current increase in neurons, studies were performed to identify the sub-domains within C1a that could retain the ability to disrupt Kv2.1/syntaxin binding. C1a was divided into overlapping proximal and distal segments, hereafter referred to as C1a411-472 and C1a441-522, respectively. Co-immunoprecipitation experiments were performed to compare the ability of C1a and the smaller segments to displace Kv2.1 from syntaxin. Syntaxin immunoprecipitates of protein samples obtained from CHO cells transfected with a syntaxin-expressing plasmid, and co-transfected with Kv2.1 together with C1a, C1a411-472, or C1a441-522, were probed for Kv2.1.

human syntaxin = biological target: T2, human syntaxin (Homo sapiens, UniProt Q16623); experiment: Far-Western analysis of syntaxin binding to SPOT peptide arrays; details: for syntaxin binding inferred from the overlapping peptide array: sequence deduced from or picked out of the 15-mer array, not spotted itself; for syntaxin binding to spotted peptide (fluorescence intensity): 15-mer peptides on PVDF membrane, human syntaxin over-expressing CHO cell lysate, four arrays
T2 construct: expressed in transfected cells; host or cells: CHO cells (lysate)
Experimental: FIG. 8: Binding of Kv2.1 peptides to syntaxin. The 76 overlapping Kv2.1 peptides were spot-plated as an array onto a polyvinylidene fluoride membrane using the SPOTS-synthesis method. Membranes were incubated with a human syntaxin over-expressing CHO cell lysate and a far-Western analysis of syntaxin binding to the peptide arrays was performed using a commercially available syntaxin antibody and fluorescently tagged secondary antibody. Fluorescence intensity was quantified as an index of syntaxin binding to the spot array. Bars represent the mean+/−SEM of binding in four independent arrays. […]

T2 sequence (Q16623 whole entry): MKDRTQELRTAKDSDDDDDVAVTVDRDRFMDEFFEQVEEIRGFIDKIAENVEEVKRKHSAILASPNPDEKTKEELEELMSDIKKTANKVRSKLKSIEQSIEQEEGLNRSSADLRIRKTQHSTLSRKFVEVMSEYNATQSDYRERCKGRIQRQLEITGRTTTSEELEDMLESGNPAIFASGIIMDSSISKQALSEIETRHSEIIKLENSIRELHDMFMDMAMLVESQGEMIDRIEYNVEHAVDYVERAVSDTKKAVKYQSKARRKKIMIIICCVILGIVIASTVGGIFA
T1 sequence (Q16623 whole entry): as above

| Molecule | effect on Kv2.1/syntaxin binding (co-immunoprecipitation) (Kv2.1/syntaxin binding) | syntaxin binding inferred from the overlapping peptide array (human syntaxin) | syntaxin binding to spotted peptide (fluorescence intensity) (human syntaxin) | other results |
| --- | --- | --- | --- | --- |
| C1a441-472: overlapping middle segment of C1a, residues 441-472 of rat Kv2.1 (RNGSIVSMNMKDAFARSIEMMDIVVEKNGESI; UniProt P15387 441-472, looked up, fragment) | had no effect on syntaxin's ability to bind to Kv2.1 | – | – | mean±SEM ratio of Kv2.1 to syntaxin immunoblots (Kv2.1/syntaxin binding; CHO cells, n=3, baseline=0.24±0.08): 0.25±0.1 |
| DIVVEEKNGE (DIVVEKNGE; listed as Rattus norvegicus) [reference compound] | – | non-syntaxin-binding | – | – |
| HLSPNKWKW (listed as Rattus norvegicus) | – | represents the syntaxin-binding domain | – | – |
| peptide #22: 15-mer, residues 472-486 of SEQ ID NO: 3 (DKVQDNHLSPNKWKW; listed as Rattus norvegicus) | – | – | initial peptide showing substantial binding | – |
| peptide #28: 15-mer, residues 478-492 of SEQ ID NO: 3 (HLSPNKWKWTKRALS; listed as Rattus norvegicus) | – | – | final peptide showing substantial binding | – |
| B1 | did not | – | – | – |
